# In US20050037431A1:
# Target: Met receptor on cells (A549, MDA-MB-435, BxPC3) (UniProt P08581)
# Experiment: cell-based or functional assay
# UniProt P08581, sequence (P08581 25-1390 limits assumed): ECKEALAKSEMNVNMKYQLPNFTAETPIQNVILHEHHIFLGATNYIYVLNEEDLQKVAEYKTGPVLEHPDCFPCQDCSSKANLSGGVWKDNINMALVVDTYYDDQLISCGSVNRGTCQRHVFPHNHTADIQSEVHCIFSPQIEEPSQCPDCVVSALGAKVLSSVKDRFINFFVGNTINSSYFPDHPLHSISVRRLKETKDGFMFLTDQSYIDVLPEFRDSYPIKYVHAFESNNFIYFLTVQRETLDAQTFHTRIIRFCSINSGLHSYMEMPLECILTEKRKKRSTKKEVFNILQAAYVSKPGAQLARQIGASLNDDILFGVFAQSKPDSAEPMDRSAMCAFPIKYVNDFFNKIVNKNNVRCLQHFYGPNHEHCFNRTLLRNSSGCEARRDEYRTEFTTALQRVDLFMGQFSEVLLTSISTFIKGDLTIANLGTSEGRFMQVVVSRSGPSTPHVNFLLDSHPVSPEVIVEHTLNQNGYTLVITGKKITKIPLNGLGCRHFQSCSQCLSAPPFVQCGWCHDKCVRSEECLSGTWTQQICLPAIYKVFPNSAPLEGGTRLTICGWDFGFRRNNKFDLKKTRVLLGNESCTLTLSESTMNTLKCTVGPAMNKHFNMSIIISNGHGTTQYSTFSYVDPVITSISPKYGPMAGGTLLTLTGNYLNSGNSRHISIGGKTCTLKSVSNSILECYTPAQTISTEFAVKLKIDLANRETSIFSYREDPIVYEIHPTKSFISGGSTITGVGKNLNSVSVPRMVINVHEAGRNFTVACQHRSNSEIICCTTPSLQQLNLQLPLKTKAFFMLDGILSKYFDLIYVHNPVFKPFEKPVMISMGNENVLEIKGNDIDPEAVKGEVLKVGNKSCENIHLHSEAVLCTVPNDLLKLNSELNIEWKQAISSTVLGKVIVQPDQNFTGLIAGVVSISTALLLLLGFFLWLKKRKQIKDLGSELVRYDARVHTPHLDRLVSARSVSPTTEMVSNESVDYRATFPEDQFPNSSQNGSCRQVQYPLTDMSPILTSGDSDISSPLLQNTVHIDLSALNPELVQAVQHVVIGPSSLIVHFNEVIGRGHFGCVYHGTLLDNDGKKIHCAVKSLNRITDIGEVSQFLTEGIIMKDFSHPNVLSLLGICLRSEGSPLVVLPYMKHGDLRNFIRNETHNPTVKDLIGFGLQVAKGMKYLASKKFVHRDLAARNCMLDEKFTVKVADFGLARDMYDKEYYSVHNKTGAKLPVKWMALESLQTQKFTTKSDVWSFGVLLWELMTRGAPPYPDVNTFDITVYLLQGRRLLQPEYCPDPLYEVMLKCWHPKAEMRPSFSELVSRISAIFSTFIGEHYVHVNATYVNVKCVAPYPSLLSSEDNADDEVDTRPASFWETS
row,Substance,"migration of MDA-MB435 cells (transwell, 1 nM), percent of wildtype HGF (% of wildtype activity)"
1,HGF G621A (two-chain full length HGF mutant) (from UniProt P14210 32-494; P14210 495-728) (ligand),60 to 80
2,HGF P537A (two-chain full length HGF mutant) (from UniProt P14210 32-494; P14210 495-728) (ligand),60 to 80
3,HGF R514A (two-chain full length HGF mutant) (from UniProt P14210 32-494; P14210 495-728) (ligand),60 to 80

# Continued, values first:
row,"migration of MDA-MB435 cells (transwell, 1 nM), percent of wildtype HGF (% of wildtype activity)",Substance
1,60 to 80,HGF I699A (two-chain full length HGF mutant) (from UniProt P14210 32-494; P14210 495-728) (ligand)
2,60 to 80,HGF N701A (two-chain full length HGF mutant) (from UniProt P14210 32-494; P14210 495-728) (ligand)
3,60 to 80,HGF T620A (two-chain full length HGF mutant) (from UniProt P14210 32-494; P14210 495-728) (ligand)
4,60 to 80,HGF Y619A (two-chain full length HGF mutant) (from UniProt P14210 32-494; P14210 495-728) (ligand)
